This data set has as its system Saccharomyces cerevisiae. The data set is described as follows: transcriptional activation domain activity (GFP:mCherry ratio, weighted mean of sorted bins, harmonized to initial dataset scale) (arbitrary fluorescence ratio units); higher = stronger transcriptional activation. As to conditions: beta-estradiol 1 µM; induction time 4 h. The method in brief: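 Activation activity, the read-weighted mean of bin median fluorescence averaged across barcodes, was linearly mapped onto the scale of the initial dataset. It was measured for barcoded protein tiles fused to an estradiol-inducible synthetic transcription factor at URA3 in GFP-reporter yeast diploids. Cultures diluted 1:5 into SC with 1 uM beta-estradiol were held 4 hours at 30 °C, sorted into 8 bins by GFP:mCherry ratio, and barcode-sequenced, and tiles under 50 reads were discarded.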
“GKGEEEVEEEERLYDRLVIANGHYRVPFVPPLPGLAAWQRAGRATHAAWYRAA”: the “transcriptional activation domain activity” value is 59800.

Regarding “KDEVMKIMPVQKQTRAGQRTRFKAFVVIGDSDGHVGLGVKCAKEVATAIRGAI”, the “transcriptional activation domain activity” value was 61200.

With “MITRCHLIIFLFWLLLLLLLFRCWATFLCISAWLFAKQEKQTFCQPCLLIMRV”, the “transcriptional activation domain activity” value was 38200.

With “MRLCFAKYHFPPPSTFFPPLLFSLLCPVAFYANYCPFFFFFLFLFPYSFFVQE”, the “transcriptional activation domain activity” value is 63600.

For the sequence “DGEGEDAEDGSKKDAEVAYHSGLGLKFRYPGDPKKLREASKLKLWTAYLKDHG”, the “transcriptional activation domain activity” value amounted to 55100.

“AEDRYIMELFVEDFICLAISGGPRLPVERAVSSWMVRILLSIQIRNYMQGNRQ”: the “transcriptional activation domain activity” value is 44500.

Take “MVSFFFSLCFSSFSYLLFPHFLSFFLFFSLCCHFFPFVSTFPPILFFIMNVSF”: the “transcriptional activation domain activity” value was 67100.

For the sequence “SVSRDRGAFEWAGDNLMTVFCQPYRLVDPEMWCLLYDVLRFNACCRSIIATPY”, the “transcriptional activation domain activity” value came out at 63900.

For the sequence “PNRRSMGKQDPYCAARLGKEAKKTATDRRGGQTPKWDQELRFTVHDSPDYHQL”, the “transcriptional activation domain activity” value is 64200.

For the sequence “EEEPATKKQKTDDAAATTNGDAKPKGKPGRPKKAESEKKSPAKKRDPKKAATA”, the “transcriptional activation domain activity” value is 33700.

As for “NGGCDYVFSMYVLGAGLWLFIFFLPPIIFSIVCLCYLALIWAVSWVLLWCLVF”, the “transcriptional activation domain activity” value turned out to be 49600.

With “GDGTPTLSWRHDLGGGEVRDLEVTVVKVHSGEVTLLSSATLKLVLVFHLSSTI”, the “transcriptional activation domain activity” value amounted to 43400.

Take “HSSTAFSGYIDDPFNLNEILPLPASDFKLNTVTNLNEIDFTNIFTKSPHPHSG”: the “transcriptional activation domain activity” value was 136000.

Turning to “KRGEGEAGKESGRQRRSGSAGERAGRRGEGSKEGAEGESEASREKGNKRNDEE”, the “transcriptional activation domain activity” value is 32800.

Take “FFHVTIRVASQACGIGFGILGFRNTNLFLAFLILGAEGYFSLVLCAFRFLISW”: the “transcriptional activation domain activity” value stood at 48000.

Regarding “MVFLLIFIVSTLFFCLFLYLLLPSFFYVIFALLAHIFVFSVSLHRQPLLLYLS”, the “transcriptional activation domain activity” value is 49300.

In the case of “MFAKILVLSWFDSIRWGLFLLLCVMGVFLLFDIPFFLFPTCFLCLVFPFLLAK”, the “transcriptional activation domain activity” value turned out to be 20400.

Take “MVLSILEIICAVVVLHPSCNYHIFSQCICEFSSWSFAISALLVVVLFWAAVAR”: the “transcriptional activation domain activity” value is 56000.

“FKCCAVAFPIVCFATPYTALIQRPLVQQAAMFGIMIVKCFAVIFAFPCSIILL”: the “transcriptional activation domain activity” value stood at 81600.

For the sequence “LHRYPIIRRGVALQTGKGKRKRMYQLIVVGNGDGLVGYGEGKNEDMGMAASKS”, the “transcriptional activation domain activity” value stood at 28500.

For the sequence “HFILTGSDLGWVLVYFDYDDRIYIFLMEWCKLNCYWIILMYIWNILPTALLLQ”, the “transcriptional activation domain activity” value came out at 34300.

Regarding “MNFTDIYFSDIIYVLLLYLLILFTFFLDLLISFTFVTLYSILFLFVLYSFILN”, the “transcriptional activation domain activity” value was found to be 70500.

Regarding “FFLVLIYCPFPSFGPDLSLPFPSPFLSLHLLITILLSPLSPFYLFLFYFTSPS”, the “transcriptional activation domain activity” value was determined as 84300.

Take “SLNVLACGAIILFPRLAFLVVNNNAIVLGLRVMFVKFVFVCLLALWCFAGFLL”: the “transcriptional activation domain activity” value was 69300.

Consider “NGELPHENGGRETKVKFEGTAAPKESRIGQMRQHLLLLAESQHRFIRHCGTHG”, for which the “transcriptional activation domain activity” value is 29600.

For the sequence “RCFSFLFLGCHYDTDWGFGFCCLFVINCRFNFCIFFLSLFSSFFVLVSFFLLY”, the “transcriptional activation domain activity” value amounted to 58800.

Consider “ALKVVVRVKMFGIGPLIYCSCLFVLLFSVVLLLLLAALYLMLQIYAALVVSAV”, for which the “transcriptional activation domain activity” value stood at 47100.

As for “VIRGLEELVYLDIRLPFQVEFLNMNPLLLGPACILRSMTLVILSSDGCFPTSR”, the “transcriptional activation domain activity” value is 54000.

In the case of “NANVKLCVDGKWDKMCLMCTGDGTSSGVWRLCERILGSARCVIESIGCWVVLC”, the “transcriptional activation domain activity” value is 60600.

For “EEAAVESEAPKKKGRAKRVKPEPEVDDEPAVEQPKKKGRVKKAKVEPEPEADE”, the “transcriptional activation domain activity” value amounted to 46900.

For the sequence “GQAGAPQRASARGSVQLPAQRGAQDGEPAAARRARSRDHARHKPPRHGEAVHA”, the “transcriptional activation domain activity” value was 46200.

Turning to “ICISILLIPGDLVTVFSRIGRSEAANIAFSIVLMPSMWSGYFWISLCYLSFWT”, the “transcriptional activation domain activity” value worked out at 52700.

“MHRELTGYFFSFFFFLFFFSFFIHISRLAVYIWDWVTSLHFFIFVILNILGSS”: the “transcriptional activation domain activity” value is 66700.

Consider “VACAVLIAVSIFATIYVVLTSLPVIFQQCPFQTPLSSIIWYLGHLLVIASLSL”, for which the “transcriptional activation domain activity” value came out at 28400.

For the sequence “CGSQSPALLYPYYQIDTIVPCIRDLESYYKSAGFPTTTLIWPLFLHLMILFVV”, the “transcriptional activation domain activity” value was 75400.

For the sequence “MTCFVCNPFLLCAKVFVFFSVSWWVVLSSLFWGCFLMYVFLLFPIKMFLRFCS”, the “transcriptional activation domain activity” value was 61000.

As to “RIILINPLICGATLMLVFAAIGGGWRNVAIEIFVDHGYIRLLFILCTIPQIWL”, the “transcriptional activation domain activity” value amounted to 56800.

Turning to “SVCHRAGEGDEEVEDEEEGEESDEEEEDGDDEKTADGGRAASARKGRDAGAGA”, the “transcriptional activation domain activity” value stood at 13000.

On to “EAVESKPVKKAKGKPKKAIETPEPDAEESTGAEAVESKPVKRAKGKSKKAIKT”, for which the “transcriptional activation domain activity” value is 53100.

Take “SRTTSLGVWFLVIQMIWYGLFGALYIWFFCQDWYLFDVHLVFDYLMRFILCLM”: the “transcriptional activation domain activity” value was 40700.

Consider “MDEGFFFFCFSFLFLLSPPSSWYFVFSFFLPLNFPSCSLFFVITFFLFLFFFW”, for which the “transcriptional activation domain activity” value was found to be 37900.

Turning to “LAKARCGCCFQIGSLVELIKLCLLIMLLVVIYFVTVQALIAVLVSSKLCILVP”, the “transcriptional activation domain activity” value was found to be 43800.

Take “ALEKDKKEEPKEDSKKDESKTEKKEEEDNKDENGRPKLVVKRLRKETTAAAAV”: the “transcriptional activation domain activity” value came out at 20000.

“LSAFCCTLVDRYLLSTEYSHFSICLVRSVLNWVARGISSLLLLHFFLLLVMYE”: the “transcriptional activation domain activity” value worked out at 50600.

With “VFYGSNYFFICAISYVKGLGFCISDSFRYSWMSISPYWMIFMVVCNILPAILI”, the “transcriptional activation domain activity” value stood at 63900.

For the sequence “EARNIVGIKNIDLYKGPLFVFWAPMNPSHVGWNGGMHLYAWRCKLLSNLPYHF”, the “transcriptional activation domain activity” value was found to be 25600.

On to “MMSGGMAYQVLFLYLLGYRLFYPRYFLFHSMFLFFIYCYMRCCPFRFTTILID”, for which the “transcriptional activation domain activity” value is 58000.

Regarding “MDGVFGDCFFFLCFIFVFCFITFFFFFGLLLLLCCYGLDGGYVLVFFFLFFFV”, the “transcriptional activation domain activity” value is 33500.

On to “MNQSPDDTGGEDQTTAPSWRACDNCRARKIKCDKRSPCSNCRVSNAICRTAKK”, for which the “transcriptional activation domain activity” value stood at 30600.

With “AISKLGQIMLYILKCLGLLKVVRKDDQGRIVECNNLTLINLVLTYTGPLPERN”, the “transcriptional activation domain activity” value came to 46000.

For “MGLGVLYHLSLLFPSFSFFYLSSSFPPFFFFFLLLWLFPISCLGFLVLFWTGS”, the “transcriptional activation domain activity” value turned out to be 61300.

Take “ANHQVYADWWYAWCLTYYTGTYKDVFIVLKKSLKWVPVLGWGMQSFRFIFLAR”: the “transcriptional activation domain activity” value was 79000.

Regarding “EALMRRFISKGGFMTSRINWAIQSSGVDYLHLLIVSMEYLIRRFNLNARLAIT”, the “transcriptional activation domain activity” value worked out at 49400.

In the case of “AWLIHCILLFPWSSKLFPSWCGHMTSCYEFYVLGAISVCNCAVVFVYWLILLV”, the “transcriptional activation domain activity” value worked out at 56600.

As for “YLYLCLQLLYYCRYCVFAIYTCHLPFAYTCMLMLLATGPYFYGLFICLRYLCC”, the “transcriptional activation domain activity” value turned out to be 24900.

Turning to “SFNDTSFLNMEDPIRNEFSFDNGDRAVTDLPRSAHFLSDTGLEGINFSGLNDS”, the “transcriptional activation domain activity” value amounted to 55200.

For “RVFLFRLMLSLIYTFLGSLCVTGAVWAYRVNWKVNGNQFVLSWMAIWLFAHCN”, the “transcriptional activation domain activity” value was determined as 44800.

Turning to “GNESDDESTEEEKEVKRKKKKKVAKKLPKKKAKKAAVKAKSKKSKKADSSDES”, the “transcriptional activation domain activity” value came out at 31000.

With “SIRVILLNLGLSNGLETIPYGLISIIYQSKYQSFAYTLLFFSNLFTYSLWYVV”, the “transcriptional activation domain activity” value stood at 61200.

For the sequence “SRVVYRDGRRHHYCVTSFDVLSSGILYIICGALDNIWLVTIERVVLSIMACRV”, the “transcriptional activation domain activity” value was 81500.

On to “MKILSFLCTYSLSFTLTIPNSLLSFLRTLFNFTNNYKYMILLLLGYLCLIGLF”, for which the “transcriptional activation domain activity” value turned out to be 35600.

Take “FVVLLYQSIFVLSLWLLPVFFKSHIKSLSYKSQVDTSIHVVSMFQCLLILYLI”: the “transcriptional activation domain activity” value was 50200.

As to “VLPVRFPKDCDQVFIACAVDCAELWRPGWKANIWVISHRRMIVSTVHIRHLSR”, the “transcriptional activation domain activity” value amounted to 48200.

For the sequence “TLHFFQPIAKWFGIKKSSKLIRFGEQGHAMAYFAVTSCWGLRVMRQLPTWWYR”, the “transcriptional activation domain activity” value is 41500.

In the case of “MLFIYEVFPSFSHSPIHSPFISFPSSLPSLSLPESLCICLWIVLFLTFNFYTL”, the “transcriptional activation domain activity” value was 56900.

As to “ERSLGGGSLYTGKAVHTDPEMSEVHATEYTRGRLRKFLCLAFGEVASVLRLDK”, the “transcriptional activation domain activity” value was 16600.

As to “NTLSRTKAYMTFILAFVAITSIVRFTGSTLYLIARFLLGKRAWITYLIYVYLY”, the “transcriptional activation domain activity” value came out at 52700.

In the case of “HLLILRFVAHFSHLGLGCSSYSLMFYVLSYLLYISLLSNIISLYPPSCLYLAH”, the “transcriptional activation domain activity” value amounted to 45400.

In the case of “FSAEIAILRWLKGNRQNDYIGALTSINRGLKLMYVHAYQSLVWNRAVSERWAR”, the “transcriptional activation domain activity” value turned out to be 57900.

“NYVMLCSVYTTVHIHKHGRDAWKLMIRERSWKYILFAMADLQGNLFVLYAFRN”: the “transcriptional activation domain activity” value is 59300.

Take “EYDEDAARRIAERVHARAIGLTCGAAPPQVGGRSCASAVWSPIRVAVSTVCIQ”: the “transcriptional activation domain activity” value came to 44700.

With “MCVLFGNFFFFLLFSFCFYLFFFLSSFLAPLPAFFLLFCLLMGRKIGVGIIPL”, the “transcriptional activation domain activity” value amounted to 40800.

Regarding “VRVPDFHHADGRDHVRDGEDGHGDGHVRVHAHAQGGGQGRGLARDRVDAHARE”, the “transcriptional activation domain activity” value turned out to be 13200.

On to “SKSRSSSSSSSSSSSSSSSSSSSESEKSHSKHKSKSKSKSKARKSKSKSKHRG”, for which the “transcriptional activation domain activity” value was found to be 18100.

Values taken from the supplement of paper PMC12636428.
